Assay results: publication PMC2700308 (Biochemistry, 2009)
Square brackets hold non-standard residues; d marks the D form. Ends that are not written are not given here. sY = N[C@@H](Cc1ccc(OS(=O)(=O)O)cc1)C(=O)O

Target: Full-length gp120 from the subtype B YU2 HIV-1 strain (HIV-1, subtype B, strain YU2, UniProt P35961 32-498)
Assay: ITC

Binder: MDYQVSSPI[sY]DIN[sY]YTSEPSQK [S22 peptide, 22 amino acid tyrosine-sulfated peptide corresponding to the CCR5 N-terminus]
- Kd: ≥ 1000 µM
